According to patent US20260234738A1:

Target: SARS-CoV-2 spike protein variant Y483A on VSV pseudoparticles (SARS-CoV-2) (UniProt P0DTC2)
Experiment: cell-based or functional assay

Substance: mAb10987 (antibody)
- Relative neutralization at 5 µg/ml: 99%
